Results on three molecules are retold here after article PMC11742427, “Structural basis for metal ion transport by the human SLC11 proteins DMT1 and NRAMP1” (Nature Communications, 2025).

Experiment [1] deals with T1, human DMT1 (SLC11A2) (human, UniProt P49281-3 2-590, chemically biotinylated (EZ-Link NHS-PEG4-Biotinylation kit) for the SPR experiments).
T1 construct: human DMT1 (SLC11A2), UniProt P49281-3; Tags follow an HRV-3C site and were removed with HRV 3C protease; The same construct was used without biotin for the SEC of the complexes; source: HEK293S GnTI- cells, transient transfection, purified in DDM/CHS (StrepTactin, SEC); not shown: Myc, C-terminal, cleaved
T1 sequence: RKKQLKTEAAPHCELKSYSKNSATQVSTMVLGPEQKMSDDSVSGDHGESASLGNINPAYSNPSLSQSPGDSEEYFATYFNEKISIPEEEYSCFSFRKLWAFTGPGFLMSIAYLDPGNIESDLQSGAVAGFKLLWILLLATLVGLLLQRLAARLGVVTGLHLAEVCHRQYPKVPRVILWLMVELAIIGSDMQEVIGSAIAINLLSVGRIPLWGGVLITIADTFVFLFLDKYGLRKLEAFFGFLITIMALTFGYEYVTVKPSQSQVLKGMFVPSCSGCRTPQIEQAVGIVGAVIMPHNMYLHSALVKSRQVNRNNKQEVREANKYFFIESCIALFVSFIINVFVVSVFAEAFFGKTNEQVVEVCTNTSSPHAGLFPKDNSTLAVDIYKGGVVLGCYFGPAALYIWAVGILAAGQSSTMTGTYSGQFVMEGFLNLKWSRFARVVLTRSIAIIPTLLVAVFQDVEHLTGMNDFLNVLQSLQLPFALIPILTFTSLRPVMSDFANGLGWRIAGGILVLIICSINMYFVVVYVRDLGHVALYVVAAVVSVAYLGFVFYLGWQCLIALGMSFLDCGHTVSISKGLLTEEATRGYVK
Put plainly: SPR; chemically biotinylated DMT1 or NRAMP1 immobilised on a SAD200M chip (about 900 RU); sybodies injected at 7.8-500 nM, 10 °C, 30 µl/min; 10 mM HEPES pH 7.4, 150 mM NaCl, 0.04% DDM, 0.004% CHS, 0.1% BSA; fit to a 1:1 binding model. As to conditions: both partners purified.

The target in experiment [2] is T2, human DMT1 (SLC11A2) (Homo sapiens, DMT1 isoform 3 (P49281-3), UniProt P49281-3, chemically biotinylated (EZ-Link NHS-PEG4-Biotinylation kit) for the SPR assay; not for cryo-EM).
T2 construct: human DMT1 (SLC11A2), UniProt identifier P49281-3, codon-optimised synthetic gene in pcDXC3MS; The C-terminal HRV-3C site was cut, so residues of the cleavage site are left on the C-terminus; One construct was used for SPR (biotinylated, immobilised) and cryo-EM; source: HEK293S GnTI- cells, transient transfection, purified in DDM/CHS (StrepTactin, HRV 3C cleavage, SEC); not shown: Myc, …
Kind of experiment: SPR; chemically biotinylated DMT1 or NRAMP1 immobilised on a SAD200M chip (~900 RU); sybodies injected at 7.8-500 nM, 10 °C, 30 µl/min; 10 mM HEPES pH 7.4, 150 mM NaCl, 0.04% DDM, 0.004% CHS, 0.1% BSA; single-site binding model. As to conditions: both partners purified.

B1: sybody Sb1^DMT1 (VHH)
VHH: QVQLVESGGGLVQAGGSLRLSCAASGFPVSRSEMYWYRQAPGKEREWVAAIHSIGWNTRYADSVKGRFTISRDNAKNTVYLQMNSLKPEDTAVYYCNVKDAGWFWTNYDYWGQGTQVTVSA
notes: synthetic nanobody (sybody) selected against DMT1; the tags are surmised from the vector
Consider B1, for which, in the experiment with human DMT1 (SLC11A2) [1], the Kd worked out at 55 nM.

B2: Sb1^DMT1 (sybody, synthetic nanobody selected against DMT1) (VHH)
VHH: B1 VHH
notes: Selected from synthetic nanobody (sybody) libraries; The sybody model PDB 7P5V was only the starting model for building Sb1, not Sb1 itself
Molecule B2 returned a Kd in the experiment with human DMT1 (SLC11A2) [2] of approximately 50 nM.

B3: sybody Sb2^DMT1 (VHH)
VHH: QVQLVESGGGLVQAGGSLRLSCAASGFPVNAAWMHWYRQAPGKEREWVAAIRSAGHLTEYADSVKGRFTISRDNAKNTVYLQMNNLKPEDTAVYYCWVYVGESYHGQGTQVTVSA
notes: synthetic nanobody (sybody) selected against DMT1; the tags are surmised from the vector; Not resolved in the maps of PDB 9F6N and 9F6O
B3 had a Kd with human DMT1 (SLC11A2) [1] of 48 nM.
